Data reported in US20250361326A1 (Hoffmann-La Roche, published 2025).

Legend:
VEGF [1] = molecular target: T1, VEGF (UniProt P15692-9 27-147); experiment: bridging ELISA of exchange reaction mix, 1.3 µM input; VEGF coated, biocytinamid-Cy5 detection; highest value = 100%; binder has bio arm, no VEGF arm
T1 construct: also called VEGF121
T1 sequence (looked up): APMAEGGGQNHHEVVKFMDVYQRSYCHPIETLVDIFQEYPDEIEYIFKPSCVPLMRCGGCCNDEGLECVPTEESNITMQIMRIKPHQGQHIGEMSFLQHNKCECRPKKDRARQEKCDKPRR

VEGF [2] = molecular target: T1, VEGF; experiment: bridging ELISA, VEGF coated, biocytinamid-Cy5 detection; binder has bio arm, no VEGF arm
VEGF [3] = molecular target: T1, VEGF; experiment: bridging ELISA of exchange reaction mix, 1.3 µM input; VEGF coated, digoxygenin-Cy5 detection; highest value = 100%; binder has neither arm
VEGF [4] = molecular target: T1, VEGF; experiment: bridging ELISA, VEGF coated, biocytinamid-Cy5 or digoxygenin-Cy5 detection; binder has bio and dig arms, no VEGF arm
VEGF [5] = molecular target: T1, VEGF; experiment: bridging ELISA of exchange reaction mix, 1.3 µM input; VEGF coated, digoxygenin-Cy5 detection; highest value = 100%; binder has dig arm, no VEGF arm
VEGF [6] = molecular target: T1, VEGF; experiment: bridging ELISA of exchange reaction mix, 1.3 µM input; VEGF coated, biocytinamid-Cy5 detection; highest value = 100%; binder has neither arm
VEGF [7] = molecular target: T1, VEGF; experiment: bridging ELISA, VEGF coated, digoxygenin-Cy5 detection; binder has dig arm, no VEGF arm
VEGF [8] = molecular target: T1, VEGF; experiment: bridging ELISA, VEGF coated, biocytinamid-Cy5 detection; binder has bio and PDGF arms, no VEGF arm
VEGF [9] = molecular target: T1, VEGF; experiment: bridging ELISA, VEGF coated, digoxygenin-Cy5 detection; binder has dig and PDGF arms, no VEGF arm

Binder	relative signal intensity (VEGF [1])	relative signal intensity (VEGF [3])	relative signal intensity (VEGF [5])	relative signal intensity (VEGF [6])	also measured
anti-bio/anti-fluos bispecific antibody (exchange reaction: bio MHCFcRP-knob-E357K row x fluos MHCFcRP-hole-K370E column) (bispecific antibody, human IgG1, kappa, Product of the 2/3-IgG exchange reaction, tested as reaction mix; human IgG1 knob-into-hole format; also called bio/fluos bsAb) heavy 1: not shown light 1: DIQMTQSPSSLSASVGDRVTITCRASGNIHNYLSWYQQKPGKVPKLLIYSAKTLADGVPSRFSGSGSGTDFTLTISSLQPEDVATYYCQHFWSSIYTFGQGTKLEIKRTVAAPSVFIFPPSDEQLKSGTASVVCLLNNFYPREAKVQWKVDNALQSGNSQESVTEQDSKDSTYSLSSTLTLSKADYEKHKVYACEVTHQGLSSPVTKSFNRGEC heavy 2: not shown light 2: DIVMTQTPLSLSVTPGQPASISCKSSQSLVHSNGNTYLRWYLQKPGQSPKVLIYKVSNRVSGVPDRFSGSGSGTDFTLKISRVEAEDVGVYYCSQSTHVPWTFGQGTKLEIKRTVAAPSVFIFPPSDEQLKSGTASVVCLLNNFYPREAKVQWKVDNALQSGNSQESVTEQDSKDSTYSLSSTLTLSKADYEKHKVYACEVTHQGLSSPVTKSFNRGEC	9%	7.2%			binding result (VEGF [2]): no binding (tested: 1.3 µM input molecule concentration)
anti-bio/anti-dig bispecific antibody (exchange reaction: bio MHCFcRP-knob-E357K row x dig MHCFcRP-hole-K370E column) (bispecific antibody, human IgG1, not shown: small tags and cut ends, Product of the 2/3-IgG exchange reaction, tested as reaction mix; human IgG1 knob-into-hole format; also called bio/dig bsAb) heavy 1: not shown light 1: DIQMTQSPSSLSASVGDRVTITCRASGNIHNYLSWYQQKPGKVPKLLIYSAKTLADGVPSRFSGSGSGTDFTLTISSLQPEDVATYYCQHFWSSIYTFGQGTKLEIKRTVAAPSVFIFPPSDEQLKSGTASVVCLLNNFYPREAKVQWKVDNALQSGNSQESVTEQDSKDSTYSLSSTLTLSKADYEKHKVYACEVTHQGLSSPVTKSFNRGEC heavy 2: QVQLVESGGGLVKPGGSLRLSCAASGFTFSDYAMSWIRQAPGKGLEWVSSINIGATYIYYADSVKGRFTISRDNAKNSLYLQMNSLRAEDTAVYYCARPGSPYEYDKAYYSMAYWGQGTTVTVSSASTKGPSVFPLAPSSKSTSGGTAALGCLVKDYFPEPVTVSWNSGALTSGVHTFPAVLQSSGLYSLSSVVTVPSSSLGTQTYICNVNHKPSNTKVDKKVEPKSC light 2: not shown	9.3%		6.2%		binding result (VEGF [4]): no binding (tested: 1.3 µM input molecule concentration)
anti-fluos/anti-dig bispecific antibody (exchange reaction: fluos MHCFcRP-knob-E357K row x dig MHCFcRP-hole-K370E column) (bispecific antibody, human IgG1, not shown: small tags and cut ends, Product of the 2/3-IgG exchange reaction, tested as reaction mix; human IgG1 knob-into-hole format; also called fluos/dig bsAb) heavy 1: not shown light 1: DIVMTQTPLSLSVTPGQPASISCKSSQSLVHSNGNTYLRWYLQKPGQSPKVLIYKVSNRVSGVPDRFSGSGSGTDFTLKISRVEAEDVGVYYCSQSTHVPWTFGQGTKLEIKRTVAAPSVFIFPPSDEQLKSGTASVVCLLNNFYPREAKVQWKVDNALQSGNSQESVTEQDSKDSTYSLSSTLTLSKADYEKHKVYACEVTHQGLSSPVTKSFNRGEC heavy 2: QVQLVESGGGLVKPGGSLRLSCAASGFTFSDYAMSWIRQAPGKGLEWVSSINIGATYIYYADSVKGRFTISRDNAKNSLYLQMNSLRAEDTAVYYCARPGSPYEYDKAYYSMAYWGQGTTVTVSSASTKGPSVFPLAPSSKSTSGGTAALGCLVKDYFPEPVTVSWNSGALTSGVHTFPAVLQSSGLYSLSSVVTVPSSSLGTQTYICNVNHKPSNTKVDKKVEPKSC light 2: not shown			6.3%	9.4%	binding result (VEGF [7]): no binding (tested: 1.3 µM input molecule concentration)
anti-dig/anti-bio bispecific antibody (exchange reaction: dig MHCFcRP-knob-E357K row x bio MHCFcRP-hole-K370E column) (bispecific antibody, human IgG1, not shown: small tags and cut ends, Product of the 2/3-IgG exchange reaction, tested as reaction mix; human IgG1 knob-into-hole format; also called dig/bio bsAb) heavy 1: QVQLVESGGGLVKPGGSLRLSCAASGFTFSDYAMSWIRQAPGKGLEWVSSINIGATYIYYADSVKGRFTISRDNAKNSLYLQMNSLRAEDTAVYYCARPGSPYEYDKAYYSMAYWGQGTTVTVSSASTKGPSVFPLAPSSKSTSGGTAALGCLVKDYFPEPVTVSWNSGALTSGVHTFPAVLQSSGLYSLSSVVTVPSSSLGTQTYICNVNHKPSNTKVDKKVEPKSC light 1: not shown heavy 2: not shown light 2: DIQMTQSPSSLSASVGDRVTITCRASGNIHNYLSWYQQKPGKVPKLLIYSAKTLADGVPSRFSGSGSGTDFTLTISSLQPEDVATYYCQHFWSSIYTFGQGTKLEIKRTVAAPSVFIFPPSDEQLKSGTASVVCLLNNFYPREAKVQWKVDNALQSGNSQESVTEQDSKDSTYSLSSTLTLSKADYEKHKVYACEVTHQGLSSPVTKSFNRGEC	9%		6.2%		binding result (VEGF [4]): no binding (tested: 1.3 µM input molecule concentration)
anti-PDGF/anti-bio bispecific antibody (exchange reaction: PDGF MHCFcRP-knob-E357K row x bio MHCFcRP-hole-K370E column) (bispecific antibody, human IgG1, not shown: small tags and cut ends, Product of the 2/3-IgG exchange reaction, tested as reaction mix; human IgG1 knob-into-hole format; also called PDGF/bio bsAb) heavy 1: EVQLVESGGGLVQPGGSLRLSCAASGFTFSSYWMSWVRQAPEKGLEWVSTISDGGGLTYYADSVKGRFTISRDNAKNSLYLQMNSLRAEDTAVYYCAESGGYTDWLFGYWGQGTLVTVSSASTKGPSVFPLAPSSKSTSGGTAALGCLVKDYFPEPVTVSWNSGALTSGVHTFPAVLQSSGLYSLSSVVTVPSSSLGTQTYICNVNHKPSNTKVDKKVEPKSC light 1: not shown heavy 2: not shown light 2: DIQMTQSPSSLSASVGDRVTITCRASGNIHNYLSWYQQKPGKVPKLLIYSAKTLADGVPSRFSGSGSGTDFTLTISSLQPEDVATYYCQHFWSSIYTFGQGTKLEIKRTVAAPSVFIFPPSDEQLKSGTASVVCLLNNFYPREAKVQWKVDNALQSGNSQESVTEQDSKDSTYSLSSTLTLSKADYEKHKVYACEVTHQGLSSPVTKSFNRGEC	10.5%	6%			binding result (VEGF [8]): no binding (tested: 1.3 µM input molecule concentration)
anti-bio/anti-PDGF bispecific antibody (exchange reaction: bio MHCFcRP-knob-E357K row x PDGF MHCFcRP-hole-K370E column) (bispecific antibody, human IgG1, not shown: small tags and cut ends, Product of the 2/3-IgG exchange reaction, tested as reaction mix; human IgG1 knob-into-hole format; also called bio/PDGF bsAb) heavy 1: not shown light 1: DIQMTQSPSSLSASVGDRVTITCRASGNIHNYLSWYQQKPGKVPKLLIYSAKTLADGVPSRFSGSGSGTDFTLTISSLQPEDVATYYCQHFWSSIYTFGQGTKLEIKRTVAAPSVFIFPPSDEQLKSGTASVVCLLNNFYPREAKVQWKVDNALQSGNSQESVTEQDSKDSTYSLSSTLTLSKADYEKHKVYACEVTHQGLSSPVTKSFNRGEC heavy 2: EVQLVESGGGLVQPGGSLRLSCAASGFTFSSYWMSWVRQAPEKGLEWVSTISDGGGLTYYADSVKGRFTISRDNAKNSLYLQMNSLRAEDTAVYYCAESGGYTDWLFGYWGQGTLVTVSSASTKGPSVFPLAPSSKSTSGGTAALGCLVKDYFPEPVTVSWNSGALTSGVHTFPAVLQSSGLYSLSSVVTVPSSSLGTQTYICNVNHKPSNTKVDKKVEPKSC light 2: not shown	10.1%	6.1%			binding result (VEGF [8]): no binding (tested: 1.3 µM input molecule concentration)
anti-fluos/anti-bio bispecific antibody (exchange reaction: fluos MHCFcRP-knob-E357K row x bio MHCFcRP-hole-K370E column) (bispecific antibody, human IgG1, kappa, Product of the 2/3-IgG exchange reaction, tested as reaction mix; human IgG1 knob-into-hole format; also called fluos/bio bsAb) heavy 1: not shown light 1: DIVMTQTPLSLSVTPGQPASISCKSSQSLVHSNGNTYLRWYLQKPGQSPKVLIYKVSNRVSGVPDRFSGSGSGTDFTLKISRVEAEDVGVYYCSQSTHVPWTFGQGTKLEIKRTVAAPSVFIFPPSDEQLKSGTASVVCLLNNFYPREAKVQWKVDNALQSGNSQESVTEQDSKDSTYSLSSTLTLSKADYEKHKVYACEVTHQGLSSPVTKSFNRGEC heavy 2: not shown light 2: DIQMTQSPSSLSASVGDRVTITCRASGNIHNYLSWYQQKPGKVPKLLIYSAKTLADGVPSRFSGSGSGTDFTLTISSLQPEDVATYYCQHFWSSIYTFGQGTKLEIKRTVAAPSVFIFPPSDEQLKSGTASVVCLLNNFYPREAKVQWKVDNALQSGNSQESVTEQDSKDSTYSLSSTLTLSKADYEKHKVYACEVTHQGLSSPVTKSFNRGEC	10.2%	6.5%			binding result (VEGF [2]): no binding (tested: 1.3 µM input molecule concentration)
anti-dig/anti-PDGF bispecific antibody (exchange reaction: dig MHCFcRP-knob-E357K row x PDGF MHCFcRP-hole-K370E column) (bispecific antibody, human IgG1, not shown: small tags and cut ends, Product of the 2/3-IgG exchange reaction, tested as reaction mix; human IgG1 knob-into-hole format; also called dig/PDGF bsAb) heavy 1: QVQLVESGGGLVKPGGSLRLSCAASGFTFSDYAMSWIRQAPGKGLEWVSSINIGATYIYYADSVKGRFTISRDNAKNSLYLQMNSLRAEDTAVYYCARPGSPYEYDKAYYSMAYWGQGTTVTVSSASTKGPSVFPLAPSSKSTSGGTAALGCLVKDYFPEPVTVSWNSGALTSGVHTFPAVLQSSGLYSLSSVVTVPSSSLGTQTYICNVNHKPSNTKVDKKVEPKSC light 1: not shown heavy 2: EVQLVESGGGLVQPGGSLRLSCAASGFTFSSYWMSWVRQAPEKGLEWVSTISDGGGLTYYADSVKGRFTISRDNAKNSLYLQMNSLRAEDTAVYYCAESGGYTDWLFGYWGQGTLVTVSSASTKGPSVFPLAPSSKSTSGGTAALGCLVKDYFPEPVTVSWNSGALTSGVHTFPAVLQSSGLYSLSSVVTVPSSSLGTQTYICNVNHKPSNTKVDKKVEPKSC light 2: not shown			7%	9.9%	binding result (VEGF [9]): no binding (tested: 1.3 µM input molecule concentration)
anti-PDGF/anti-dig bispecific antibody (exchange reaction: PDGF MHCFcRP-knob-E357K row x dig MHCFcRP-hole-K370E column) (bispecific antibody, human IgG1, not shown: small tags and cut ends, Product of the 2/3-IgG exchange reaction, tested as reaction mix; human IgG1 knob-into-hole format; also called PDGF/dig bsAb) heavy 1: EVQLVESGGGLVQPGGSLRLSCAASGFTFSSYWMSWVRQAPEKGLEWVSTISDGGGLTYYADSVKGRFTISRDNAKNSLYLQMNSLRAEDTAVYYCAESGGYTDWLFGYWGQGTLVTVSSASTKGPSVFPLAPSSKSTSGGTAALGCLVKDYFPEPVTVSWNSGALTSGVHTFPAVLQSSGLYSLSSVVTVPSSSLGTQTYICNVNHKPSNTKVDKKVEPKSC light 1: not shown heavy 2: QVQLVESGGGLVKPGGSLRLSCAASGFTFSDYAMSWIRQAPGKGLEWVSSINIGATYIYYADSVKGRFTISRDNAKNSLYLQMNSLRAEDTAVYYCARPGSPYEYDKAYYSMAYWGQGTTVTVSSASTKGPSVFPLAPSSKSTSGGTAALGCLVKDYFPEPVTVSWNSGALTSGVHTFPAVLQSSGLYSLSSVVTVPSSSLGTQTYICNVNHKPSNTKVDKKVEPKSC light 2: not shown			5.9%	9.2%	binding result (VEGF [9]): no binding (tested: 1.3 µM input molecule concentration)
